Results taken from article PMC3557595 (Journal of molecular biology, 2012).

Tests used:
[1] = biological target: GS-CENP-A(60-140)-LVPR and H4^Hs(1-103) (human, UniProt P49450 60-140; P62805 1-103); assay: SEC
[2] = biological target: GS-CENP-A^Hs(60-140)-LVPR and GS-H4^Hs(22-103) (human, UniProt P49450 60-140; P62805 22-103); assay: SEC
[3] = biological target: Hs H3.1(1-136)(S88Q/G103H)-His6/H4(1-103) (human, UniProt P68431 1-136; P62805 1-103, S88Q | G103H); assay: pull-down

Measured: binding result

B1: Hs GS-HJURP(2-81) (domain or fragment)
chain: GSLGTLRAMEGEDVEDDQLLQKLRASRRRFQRRMQRLIEKYNQPFEDTPVVQMATLTYETPQGLRIWGGRLIKERNEGEIQD
binds: all assays above
